Test results reported in publication PMC11879086, “Identification and characterization of a human MORC2 DNA binding region that is required for gene silencing” (Nucleic Acids Research, 2024).

Assays:
[1] = target: T1, MORC2 aspartate mutant (Homo sapiens, UniProt Q9Y6X9 1-1032, K704D;R707D;K713D;K716D;K721D;K722D;R754D;R755D;K756D;R758D;K760D;R761D); test: fluorescence anisotropy; apo; FA/EMSA: 50 mM NaCl, 3 mM MgCl2, 20 mM Na-HEPES pH 7.4, 1 mM TCEP, 10% glycerol, 0.025 mM ZnCl2, 50 ug/ml BSA, room temperature; 1 nM nucleic acid (FA) or 20 nM DNA (EMSA); conditions: protein: recombinant; tags: tag removed by TEV; chain copies: 2; label: 5'-6-FAM; blunt
T1 sequence: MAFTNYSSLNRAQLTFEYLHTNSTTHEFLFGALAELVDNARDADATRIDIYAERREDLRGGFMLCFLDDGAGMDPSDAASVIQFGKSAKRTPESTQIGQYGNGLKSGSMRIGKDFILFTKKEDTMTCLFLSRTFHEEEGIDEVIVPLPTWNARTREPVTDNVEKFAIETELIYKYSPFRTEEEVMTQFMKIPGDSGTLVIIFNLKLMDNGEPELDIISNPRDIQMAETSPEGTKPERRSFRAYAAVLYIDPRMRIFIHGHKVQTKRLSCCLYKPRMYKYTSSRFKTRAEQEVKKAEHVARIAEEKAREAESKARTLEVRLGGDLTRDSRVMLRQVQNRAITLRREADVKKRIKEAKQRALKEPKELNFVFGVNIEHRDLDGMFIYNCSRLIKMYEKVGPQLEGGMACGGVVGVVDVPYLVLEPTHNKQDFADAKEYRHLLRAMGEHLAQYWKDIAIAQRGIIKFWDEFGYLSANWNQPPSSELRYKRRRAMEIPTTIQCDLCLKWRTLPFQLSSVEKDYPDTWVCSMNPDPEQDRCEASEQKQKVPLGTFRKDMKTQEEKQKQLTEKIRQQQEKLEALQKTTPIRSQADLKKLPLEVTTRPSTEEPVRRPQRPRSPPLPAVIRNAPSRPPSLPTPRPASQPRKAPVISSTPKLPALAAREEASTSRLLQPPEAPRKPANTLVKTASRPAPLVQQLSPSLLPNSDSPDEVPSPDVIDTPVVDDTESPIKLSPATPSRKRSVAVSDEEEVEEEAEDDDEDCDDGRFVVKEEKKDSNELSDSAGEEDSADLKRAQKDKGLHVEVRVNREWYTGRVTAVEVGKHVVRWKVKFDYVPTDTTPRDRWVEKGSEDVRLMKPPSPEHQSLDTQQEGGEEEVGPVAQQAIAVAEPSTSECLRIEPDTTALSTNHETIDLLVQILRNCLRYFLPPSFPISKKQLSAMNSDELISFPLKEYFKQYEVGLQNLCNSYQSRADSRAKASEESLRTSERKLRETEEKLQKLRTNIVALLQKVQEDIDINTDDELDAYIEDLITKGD

[2] = target: T2, MORC2 alanine mutant (Homo sapiens, UniProt Q9Y6X9 1-1032, K704A;R707A;K713A;K716A;K721A;K722A;R754A;R755A;K756A;R758A;K760A;R761A); test: as above; conditions: protein: recombinant; tags: tag removed by TEV; chain copies: 2; label: 5'-6-FAM; blunt
T2 sequence: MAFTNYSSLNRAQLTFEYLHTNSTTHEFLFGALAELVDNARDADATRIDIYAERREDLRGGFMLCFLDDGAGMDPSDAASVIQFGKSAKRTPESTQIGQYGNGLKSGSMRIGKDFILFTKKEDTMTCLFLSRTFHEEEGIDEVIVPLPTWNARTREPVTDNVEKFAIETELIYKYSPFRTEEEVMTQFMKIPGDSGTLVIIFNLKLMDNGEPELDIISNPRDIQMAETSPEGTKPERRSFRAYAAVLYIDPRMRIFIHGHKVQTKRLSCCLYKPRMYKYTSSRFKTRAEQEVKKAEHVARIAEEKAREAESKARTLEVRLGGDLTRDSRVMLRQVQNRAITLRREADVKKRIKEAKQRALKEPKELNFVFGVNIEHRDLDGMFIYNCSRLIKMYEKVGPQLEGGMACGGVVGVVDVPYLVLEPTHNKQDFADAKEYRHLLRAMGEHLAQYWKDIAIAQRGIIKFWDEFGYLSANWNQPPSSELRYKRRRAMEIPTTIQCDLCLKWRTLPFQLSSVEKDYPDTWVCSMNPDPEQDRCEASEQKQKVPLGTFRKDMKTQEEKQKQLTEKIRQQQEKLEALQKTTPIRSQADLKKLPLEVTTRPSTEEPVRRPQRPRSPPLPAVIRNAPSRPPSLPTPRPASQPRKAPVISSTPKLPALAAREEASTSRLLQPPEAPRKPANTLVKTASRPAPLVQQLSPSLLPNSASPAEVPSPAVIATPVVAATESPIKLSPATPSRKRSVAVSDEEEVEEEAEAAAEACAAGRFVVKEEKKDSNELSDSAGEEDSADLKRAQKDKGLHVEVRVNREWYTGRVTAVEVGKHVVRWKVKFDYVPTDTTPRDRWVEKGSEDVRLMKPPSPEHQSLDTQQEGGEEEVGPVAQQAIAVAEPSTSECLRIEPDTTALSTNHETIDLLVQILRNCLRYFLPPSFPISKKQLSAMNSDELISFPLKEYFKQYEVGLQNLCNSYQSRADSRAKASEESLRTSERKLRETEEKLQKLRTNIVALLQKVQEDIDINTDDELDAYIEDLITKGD

B1: Random 35mer dsDNA (dsDNA)
DNA 1: ATAGGGTCCATCAGAATTCGGATGAACTCGGTGTG
DNA 2: CACACCGAGTTCATCCGAATTCTGATGGACCCTAT
Kd [1]: 0.38 ± 0.12 µM
Kd [2]: 0.35 ± 0.06 µM
